# Assay results published in patent US20110104143A1 (UAB RESEARCH FOUNDATION, published 2011).
# Key:
# human DR5 (full-length) [1] = target: T1, human DR5 (full-length) (human, UniProt O14763 56-440); assay: co-immunoprecipitation and Western blot with anti-6-His antibody, transfected MDA231 cells
# T1 construct: whole, on cells; Whole receptor on cells (flow cytometry) or in cell lysates (co-immunoprecipitation); also called TRAIL-R2; wild-type DR5
# Method: (§1) The composition of the DR5 DISC was determined as follows. […] The DR5 DISC was then precipitated overnight at 4° C. with 30 μl beads. After immunoprecipitation, the beads were washed four times with lysis buffer. The beads were then washed five times with 10 mM Tris buffer and resuspended in loading buffer for SDS-PAGE and immunoblotting analyses.
# human DR5 (full-length) [2] = target: T1, human DR5 (full-length); assay: co-immunoprecipitation using TRA-8, transfected HEK293A cells
# Method: (§2) After 24 hours following transfection, protein expression was determined by Western blot analysis using respective monoclonal antibody. For co-immunoprecipitation analysis, cells were lysed with immunoprecipitation-lysis buffer containing a protease inhibitor cocktail.
# as §1
# cIAP1 [3] = target: T2, cIAP1 (human, UniProt Q13490 1-618, limits assumed); assay: DR5 co-IP and Western blot with anti-DDX3 and anti-cIAP1 antibody
# T2 construct: also called DR5-associated cIAP1; purified cIAP1
# T2 sequence (Q13490 whole entry): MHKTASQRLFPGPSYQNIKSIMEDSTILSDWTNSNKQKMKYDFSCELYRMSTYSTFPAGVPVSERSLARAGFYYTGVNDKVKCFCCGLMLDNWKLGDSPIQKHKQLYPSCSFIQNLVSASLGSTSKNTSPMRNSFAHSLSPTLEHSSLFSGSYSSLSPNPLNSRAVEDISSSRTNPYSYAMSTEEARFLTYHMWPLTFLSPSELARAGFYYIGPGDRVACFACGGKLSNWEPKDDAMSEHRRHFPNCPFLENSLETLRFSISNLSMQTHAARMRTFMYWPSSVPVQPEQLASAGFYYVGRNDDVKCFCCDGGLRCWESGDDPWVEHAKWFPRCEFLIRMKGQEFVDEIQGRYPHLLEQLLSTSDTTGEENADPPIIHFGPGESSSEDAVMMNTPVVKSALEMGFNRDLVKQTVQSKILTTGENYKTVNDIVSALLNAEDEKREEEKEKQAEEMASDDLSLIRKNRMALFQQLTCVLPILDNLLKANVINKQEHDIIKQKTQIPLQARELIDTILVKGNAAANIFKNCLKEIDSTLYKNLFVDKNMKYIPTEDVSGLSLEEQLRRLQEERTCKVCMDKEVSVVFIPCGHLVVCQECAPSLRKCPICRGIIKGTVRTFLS
# human DR5 (full-length) [4] = target: T1, human DR5 (full-length); assay: cell-based or functional assay
# human DR5 (full-length) [5] = target: T1, human DR5 (full-length); assay: cell-based or functional assay; remark: listed apart in the source
# cIAP1 [6] = target: T2, cIAP1; assay: co-immunoprecipitation, transfected HEK293A cells
# Method: as §2
binder,measurement,setting,value
"His-tagged DDX3 C-terminal fragment (amino acids 310-662) (other, also called C-terminal deletion mutant) HHHHHHIRDLERGCHLLVATPGRLVDMMERGKIGLDFCKYLVLDEADRMLDMGFEPQIRRIVEQDTMPPKGVRHTMMFSATFPKEIQMLARDFLDEYIFLAVGRVGSTSENITQKVVWVEESDKRSFLLDLLNATGKDSLTLVFVETKKGADSLEDFLYHEGYACTSIHGDRSQRDREEALHQFRSGKSPILVATAVAARGLDISNVKHVINFDLPSDIEEYVHRIGRTGRVGNLGLATSFFNERNINITKDLLDLLVEAKQEVPSWLENMAYEHHYKGSSRGRSKSSRFSGGFGARDYRQSSGASSSSFSSSRASSSRSGGGGHGSSRGFGGGGYGGFYNSDGYGGNYNSQGVDWWGN",binding result,human DR5 (full-length) [1],no binding
"DDX3Δ1-350 (other, human, UniProt O00571 1-350, looked up, not shown: small tags and cut ends, range 1-350; Name read as the residues kept; also called C-terminal deleted DDX3) MSHVAVENALGLDQQFAGLDLNSSDNQSGGSTASKGRYIPPHLRNREATKGFYDKDSSGWSSSKDKDAYSSFGSRSDSRGKSSFFSDRGSGSRGRFDDRGRSDYDGIGSRGDRSGFGKFERGGNSRWCDKSDEDDWSKPLPPSERLEQELFSGGNTGINFEKYDDIPVEATGNNCPPHIESFSDVEMGEIIMGNIELTRYTRPTPVQKHAIPIIKEKRDLMACAQTGSGKTAAFLLPILSQIYSDGPGEALRAMKENGRYGRRKQYPISLVLAPTRELAVQIYEEARKFSYRSRVRPCVVYGGADIGQQIRDLERGCHLLVATPGRLVDMMERGKIGLDFCKYLVLDEAD",binding result,human DR5 (full-length) [2],no binding
"DDX3ΔCARD (DDX3Δ151-662) (other, human, UniProt O00571 151-662, looked up, not shown: small tags and cut ends, also called dominant negative mutant DDX3 lacking amino acids 1-150; truncated DDX3) FSGGNTGINFEKYDDIPVEATGNNCPPHIESFSDVEMGEIIMGNIELTRYTRPTPVQKHAIPIIKEKRDLMACAQTGSGKTAAFLLPILSQIYSDGPGEALRAMKENGRYGRRKQYPISLVLAPTRELAVQIYEEARKFSYRSRVRPCVVYGGADIGQQIRDLERGCHLLVATPGRLVDMMERGKIGLDFCKYLVLDEADRMLDMGFEPQIRRIVEQDTMPPKGVRHTMMFSATFPKEIQMLARDFLDEYIFLAVGRVGSTSENITQKVVWVEESDKRSFLLDLLNATGKDSLTLVFVETKKGADSLEDFLYHEGYACTSIHGDRSQRDREEALHQFRSGKSPILVATAVAARGLDISNVKHVINFDLPSDIEEYVHRIGRTGRVGNLGLATSFFNERNINITKDLLDLLVEAKQEVPSWLENMAYEHHYKGSSRGRSKSSRFSGGFGARDYRQSSGASSSSFSSSRASSSRSGGGGHGSSRGFGGGGYGGFYNSDGYGGNYNSQGVDWWGN",binding result,cIAP1 [3],no binding
"TRA-8 (anti-human DR5 monoclonal antibody) (antibody, V domains shown) VH: EVMLVESGGGLVKPGGSLKLSCAASGFTFSSYVMSWVRQTPEKRLEWVATISSGGSYTYYPDSVKGRFTISRDNAKNTLYLQMSSLRSEDTAMYYCARRGDSMITTDYWGQGTTLTVSS VL: DIVMTQSHKFMSTSVGDRVSITCKASQDVGTAVAWYQQKPGQSPKLLIYWASTRHTGVPDRFTGSGSGTDFTLTISNVQSEDLADYFCQQYSSYRTFGGGTKLEIKR","IC50 of TRA-8 cytotoxicity (ATP cell viability), 2LMP cells",human DR5 (full-length) [4],0.0011 µg/mL
same,"IC50 of TRA-8 cytotoxicity (ATP cell viability), BT-20 cells",human DR5 (full-length) [4],0.048 µg/mL
same,"IC50 of TRA-8 cytotoxicity (ATP cell viability), BT-549 cells",human DR5 (full-length) [4],0.018 µg/mL
same,"IC50 of TRA-8 cytotoxicity (ATP cell viability), HCC38 cells",human DR5 (full-length) [4],0.0009 µg/mL
same,"IC50 of TRA-8 cytotoxicity (ATP cell viability), HCC1143 cells",human DR5 (full-length) [4],> 1 µg/mL
same,"IC50 of TRA-8 cytotoxicity (ATP cell viability), HCC1187 cells",human DR5 (full-length) [4],0.024 µg/mL
same,"IC50 of TRA-8 cytotoxicity (ATP cell viability), HCC1599 cells",human DR5 (full-length) [4],> 1 µg/mL
same,"IC50 of TRA-8 cytotoxicity (ATP cell viability), HCC1937 cells",human DR5 (full-length) [4],> 1 µg/mL
same,"IC50 of TRA-8 cytotoxicity (ATP cell viability), MDA-MB-152 cells",human DR5 (full-length) [4],0.012 µg/mL
same,"IC50 of TRA-8 cytotoxicity (ATP cell viability), MDA-MB-231 cells",human DR5 (full-length) [4],0.018 µg/mL
same,"IC50 of TRA-8 cytotoxicity (ATP cell viability), MDA-MB-436 cells",human DR5 (full-length) [4],0.0032 µg/mL
same,"IC50 of TRA-8 cytotoxicity (ATP cell viability), MDA-MB-468 cells",human DR5 (full-length) [4],0.017 µg/mL
same,"IC50 of TRA-8 cytotoxicity (ATP cell viability), SUM102 cells",human DR5 (full-length) [4],0.0045 µg/mL
same,"IC50 of TRA-8 cytotoxicity (ATP cell viability), SUM149 cells",human DR5 (full-length) [4],0.0009 µg/mL
same,"IC50 of TRA-8 cytotoxicity (ATP cell viability), SUM159 cells",human DR5 (full-length) [4],0.0019 µg/mL
same,"IC50 of TRA-8 cytotoxicity (ATP cell viability), BT-474 cells",human DR5 (full-length) [5],> 1 µg/mL
same,"IC50 of TRA-8 cytotoxicity (ATP cell viability), DY36T2 (MDA-MB-361 subclone) cells",human DR5 (full-length) [5],> 1 µg/mL
same,"IC50 of TRA-8 cytotoxicity (ATP cell viability), MCF-7 cells",human DR5 (full-length) [5],> 1 µg/mL
same,"IC50 of TRA-8 cytotoxicity (ATP cell viability), MDA-MB-134 cells",human DR5 (full-length) [5],> 1 µg/mL
same,"IC50 of TRA-8 cytotoxicity (ATP cell viability), MDA-MB-453 cells",human DR5 (full-length) [5],> 1 µg/mL
same,"IC50 of TRA-8 cytotoxicity (ATP cell viability), SK-BR-3 cells",human DR5 (full-length) [5],> 1 µg/mL
same,"IC50 of TRA-8 cytotoxicity (ATP cell viability), T-47D cells",human DR5 (full-length) [5],> 1 µg/mL
same,"IC50 of TRA-8 cytotoxicity (ATP cell viability), ZR-75-1 cells",human DR5 (full-length) [5],0.683 µg/mL
same,"IC50 of TRA-8 cytotoxicity (ATP cell viability), ZR-75-30 cells",human DR5 (full-length) [5],> 1 µg/mL
"DDX3Δ101-662 (other, also called DDX3 with the first 100 amino acids deleted; DN) HHHHHHRSDYDGIGSRGDRSGFGKFERGGNSRWCDKSDEDDWSKPLPPSERLEQELFSGGNTGINFEKYDDIPVEATGNNCPPHIESFSDVEMGEIIMGNIELTRYTRPTPVQKHAIPIIKEKRDLMACAQTGSGKTAAFLLPILSQIYSDGPGEALRAMKENGRYGRRKQYPISLVLAPTRELAVQIYEEARKFSYRSRVRPCVVYGGADIGQQIRDLERGCHLLVATPGRLVDMMERGKIGLDFCKYLVLDEADRMLDMGFEPQIRRIVEQDTMPPKGVRHTMMFSATFPKEIQMLARDFLDEYIFLAVGRVGSTSENITQKVVWVEESDKRSFLLDLLNATGKDSLTLVFVETKKGADSLEDFLYHEGYACTSIHGDRSQRDREEALHQFRSGKSPILVATAVAARGLDISNVKHVINFDLPSDIEEYVHRIGRTGRVGNLGLATSFFNERNINITKDLLDLLVEAKQEVPSWLENMAYEHHYKGSSRGRSKSSRFSGGFGARDYRQSSGASSSSFSSSRASSSRSGGGGHGSSRGFGGGGYGGFYNSDGYGGNYNSQGVDWWGN",binding result,cIAP1 [6],no binding
